Assay [1] addresses T1, vitronectin receptor (M21 melanoma cell attachment assay) (Homo sapiens (Human)), P06756.
T1 chain 1: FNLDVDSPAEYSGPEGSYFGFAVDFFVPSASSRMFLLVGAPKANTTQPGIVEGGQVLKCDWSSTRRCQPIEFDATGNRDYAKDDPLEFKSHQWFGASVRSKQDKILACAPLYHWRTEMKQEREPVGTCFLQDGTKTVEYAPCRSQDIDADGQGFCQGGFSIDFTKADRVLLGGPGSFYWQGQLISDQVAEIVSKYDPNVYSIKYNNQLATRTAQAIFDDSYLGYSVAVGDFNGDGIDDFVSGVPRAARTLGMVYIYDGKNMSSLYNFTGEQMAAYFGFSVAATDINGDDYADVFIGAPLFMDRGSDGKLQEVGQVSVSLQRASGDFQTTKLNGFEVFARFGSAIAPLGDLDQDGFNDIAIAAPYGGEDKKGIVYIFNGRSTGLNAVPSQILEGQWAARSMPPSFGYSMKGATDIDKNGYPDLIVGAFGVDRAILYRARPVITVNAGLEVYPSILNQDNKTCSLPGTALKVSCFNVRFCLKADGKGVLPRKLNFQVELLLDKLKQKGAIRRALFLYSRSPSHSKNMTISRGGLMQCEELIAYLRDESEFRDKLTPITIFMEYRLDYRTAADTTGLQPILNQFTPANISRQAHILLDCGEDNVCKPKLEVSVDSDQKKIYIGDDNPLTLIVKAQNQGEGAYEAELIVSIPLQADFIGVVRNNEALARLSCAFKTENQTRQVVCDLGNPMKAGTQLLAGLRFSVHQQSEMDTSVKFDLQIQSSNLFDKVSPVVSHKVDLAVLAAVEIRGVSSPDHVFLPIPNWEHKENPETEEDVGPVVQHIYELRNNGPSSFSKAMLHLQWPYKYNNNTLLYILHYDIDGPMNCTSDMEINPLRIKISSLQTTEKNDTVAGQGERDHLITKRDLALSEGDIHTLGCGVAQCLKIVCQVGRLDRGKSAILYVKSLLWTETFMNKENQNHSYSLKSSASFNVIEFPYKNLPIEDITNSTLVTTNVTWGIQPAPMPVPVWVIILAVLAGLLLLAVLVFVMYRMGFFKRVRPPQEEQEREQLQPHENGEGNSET
T1 chain 2: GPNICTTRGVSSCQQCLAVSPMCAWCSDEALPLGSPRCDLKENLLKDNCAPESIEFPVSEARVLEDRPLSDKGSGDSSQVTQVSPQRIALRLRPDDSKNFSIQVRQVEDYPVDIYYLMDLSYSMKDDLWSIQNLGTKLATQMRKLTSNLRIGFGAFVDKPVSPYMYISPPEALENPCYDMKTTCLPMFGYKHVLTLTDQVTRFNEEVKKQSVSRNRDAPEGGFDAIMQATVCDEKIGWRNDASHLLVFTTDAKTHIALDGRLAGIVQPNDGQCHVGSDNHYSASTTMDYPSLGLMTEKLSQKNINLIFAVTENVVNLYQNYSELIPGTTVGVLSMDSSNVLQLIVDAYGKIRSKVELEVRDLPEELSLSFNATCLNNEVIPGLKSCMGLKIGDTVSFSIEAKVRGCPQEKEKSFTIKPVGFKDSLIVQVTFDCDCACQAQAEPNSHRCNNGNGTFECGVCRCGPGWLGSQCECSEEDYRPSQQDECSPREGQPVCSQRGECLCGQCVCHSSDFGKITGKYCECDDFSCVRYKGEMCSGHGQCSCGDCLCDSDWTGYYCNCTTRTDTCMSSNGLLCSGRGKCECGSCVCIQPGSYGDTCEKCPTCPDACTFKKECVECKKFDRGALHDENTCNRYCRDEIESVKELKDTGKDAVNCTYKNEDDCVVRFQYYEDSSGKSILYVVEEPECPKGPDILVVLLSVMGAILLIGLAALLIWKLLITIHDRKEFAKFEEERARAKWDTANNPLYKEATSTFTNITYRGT

The target in assay [2] is GP IIb-IIIa on human platelets (human), P08514.

B1: analog #3 (peptide)
peptide: GCGKGDWPCA
modifications: not checked
On to B1, for which the M21 cell attachment to vitronectin in assay [1] was over 60 µM.

B2: analog #5 (peptide)
peptide: CGKGDWPC
modifications: not checked
As for B2, the Appr, IC50 (uM): inhibition of ADP-induced human platelet aggregation in assay [2] came to 5 µM.

B3: analog #4 (peptide)
peptide: GCKGDWPCA
modifications: not checked
Molecule B3 showed an Appr, IC50 (uM): inhibition of ADP-induced human platelet aggregation in assay [2] of 5 µM.

Source of the values: patent publication US5747447.
